This experiment concerns the target His-tagged mouse Endophilin A1 SH3 domain (mouse) (UniProt Q62420). Put plainly: ELISA; His-tagged mouse Endophilin A1 SH3 domain coated on a 96-well plate, overlaid with increasing concentrations of GST-tagged Dyn1-PRR peptides; two experiments of four replicates. A general note: ELISA stands for enzyme-linked immunosorbent assay.

The values below come from publication doi:10.1101/2023.09.21.558797.

Sequence of His-tagged mouse Endophilin A1 SH3 domain (mouse) (Q62420 290-349): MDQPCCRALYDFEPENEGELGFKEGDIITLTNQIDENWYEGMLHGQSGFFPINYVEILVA

For “GST-Dyn1xB-PRR (full-length proline-rich region of Dynamin 1 splice variant xB, 746-851) (domain or fragment)”, the fold lower affinity than xA (746–864) came out at 3 fold.
